Experimental data published in PMC5854732.

How the values were obtained:
[1] = molecular target: toposome (major yolk protein) purified from gonads of Paracentrotus lividus collected prior to the bloom (C) (Paracentrotus lividus (endogenous in gonads)); test: SEC; gel filtration on Sephacryl S-400 HR (1.8 x 42 cm), Tris-HCl buffer pH 8.0 with 150 mM NaCl, 0.5 ml/min; size by comparison with standards (blue dextran 2,000 kDa, thyroglobulin 669 kDa, apoferritin 443 kDa); apparent molecular weight
[2] = molecular target: toposome (major yolk protein) purified from gonads of Paracentrotus lividus collected at the bloom phase (T0) (Paracentrotus lividus (endogenous in gonads)); test: as above

| stoichiometry N [1] | stoichiometry N [2] | Substance |
| --- | --- | --- |
| 3 |  | toposome (major yolk protein) purified from gonads of Paracentrotus lividus collected prior to the bloom (C) (natural protein) |
|  | 3 | toposome (major yolk protein) purified from gonads of Paracentrotus lividus collected at the bloom phase (T0) (natural protein) |
